Earlier results as cited in article PMC7106946.

Target: Asp46 (UniProt position 303, VILFMDRNLEQ)
Test: NMR

Substance: Hedgehog protein autoprocessing domain (HhC) Hint domain, wild type at position 46 (Drosophila melanogaster)
- pKa: 5.8
